Here are results for 6 molecules from paper PMC8458385, “Molecular basis for PICS-mediated piRNA biogenesis and cell division” (Nature Communications, 2021).

What is called Kd is the constant that tells how readily two partners part at equilibrium. High values mean a looser complex, low ones a tighter complex.

Residue numbers refer to the chain shown, from its start. In names and notes the source's numbering stands.

Sequences and labels used below:
T1: PICS-1^5-282 (C. elegans, UniProt O76616 5-282)
T1 construct: Cloned into pET28-MHL; also called almost full-length PICS-1; source: E. coli BL21(DE3), purified (Ni-NTA, TEV, second Ni-NTA); not shown: His tag (from the Ni-NTA purification), N-terminal, cleaved
T1 sequence (looked up): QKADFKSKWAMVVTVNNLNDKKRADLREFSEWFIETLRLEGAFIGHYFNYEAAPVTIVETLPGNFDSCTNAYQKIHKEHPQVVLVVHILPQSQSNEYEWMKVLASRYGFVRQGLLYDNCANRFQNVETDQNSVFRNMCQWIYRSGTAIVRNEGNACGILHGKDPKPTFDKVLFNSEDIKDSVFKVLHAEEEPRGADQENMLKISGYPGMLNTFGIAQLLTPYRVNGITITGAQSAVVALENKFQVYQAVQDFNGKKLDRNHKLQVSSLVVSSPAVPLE

T2: PICS-1^5-200 (C. elegans, UniProt O76616 5-200)
T2 construct: PICS-1 (PID-3), C. elegans, residues 5-200; Cloned into pET28-MHL; also called PICS-1^ΔRRM; PICS1^ΔRRM; source: E. coli BL21(DE3), purified (Ni-NTA, TEV, second Ni-NTA); not shown: His tag (from the Ni-NTA purification), N-terminal, cleaved
T2 sequence (looked up): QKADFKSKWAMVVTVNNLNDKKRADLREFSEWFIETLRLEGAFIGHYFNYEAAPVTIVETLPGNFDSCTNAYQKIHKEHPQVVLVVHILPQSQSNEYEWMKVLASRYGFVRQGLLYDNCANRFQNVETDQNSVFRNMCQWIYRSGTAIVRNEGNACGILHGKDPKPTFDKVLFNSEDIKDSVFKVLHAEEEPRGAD

T3: TOFU-6^RRM (residues 2-92) (C. elegans, UniProt Q09293 2-92)
T3 construct: TOFU-6, C. elegans, RRM domain, residues 2-92; Gene codon-optimised and synthesised; for the crystal co-expressed with PICS-1^RRM from a modified pETDuet-1; also called TOFU-6 RRM domain; TOFU-6^C; source: E. coli BL21(DE3), purified (Ni-NTA, TEV, second Ni-NTA; complex with PICS-1^RRM also Superdex 75); not shown: His tag (from the Ni-NTA purification), N-terminal, cleaved
T3 sequence (looked up): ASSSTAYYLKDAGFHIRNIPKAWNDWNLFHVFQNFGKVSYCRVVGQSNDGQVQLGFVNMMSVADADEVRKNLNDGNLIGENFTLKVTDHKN

T4: TOFU-6^RRM (L73M) (SeMet) (C. elegans, UniProt Q09293 2-92, L73M, seleno-methionine (SeMet) labeled)
T4 construct: TOFU-6, C. elegans, RRM domain, residues 2-92; also called SeMet TOFU-6^RRM(L73M); source: E. coli BL21(DE3) in M9 medium with SeMet, purified with PICS-1^RRM (I233M) (Ni-NTA, TEV, Superdex 75); not shown: His tag (from the Ni-NTA purification), N-terminal, cleaved
T4 sequence (looked up): T3 sequence (looked up) with L72M

T5: ERH-2^1-103-(Gly-Ser-Ser)7-PICS-1^180-200 (C. elegans, UniProt Q20057 1-103; O76616 180-200)
T5 construct: ERH-2, C. elegans, residues 1-103; 21-aa linker (Gly-Ser-Ser)7; PICS-1 (PID-3), C. elegans, EBM, residues 180-200; Cloned into pET28-MHL; The results on ITC say only 'ERH-2' for the fused part; the methods describe only the 1-103 fusion; also called ERH-2-(GSS)7-PICS-1; ERH-2^1-103-(GSS)7-PICS-1^180-200; source: E. coli BL21(DE3), purified (Ni-NTA, TEV, second Ni-NTA, Superdex 75); not shown: His …
T5 chain: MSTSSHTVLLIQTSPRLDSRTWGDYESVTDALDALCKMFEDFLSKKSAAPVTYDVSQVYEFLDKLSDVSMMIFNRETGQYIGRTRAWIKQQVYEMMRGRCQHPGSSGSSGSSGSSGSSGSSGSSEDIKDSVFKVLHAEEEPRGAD

T6: ERH-2 D67A (C. elegans, UniProt Q20057 1-113, D67A)
T6 construct: ERH-2, C. elegans; Cloned into pET28-MHL; also called D67A of ERH-2; source: E. coli BL21(DE3), purified as the wild type; not shown: His tag (from the Ni-NTA purification), N-terminal, cleaved
T6 sequence (looked up): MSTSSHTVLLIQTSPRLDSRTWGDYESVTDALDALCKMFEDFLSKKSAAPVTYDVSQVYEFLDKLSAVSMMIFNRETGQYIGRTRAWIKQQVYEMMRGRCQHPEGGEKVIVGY

B1: ERH-2 (1-103), the ERH-2 part of the crystallised fusion proteins (domain or fragment, C. elegans, UniProt Q20057 1-103, looked up)
chain: MSTSSHTVLLIQTSPRLDSRTWGDYESVTDALDALCKMFEDFLSKKSAAPVTYDVSQVYEFLDKLSDVSMMIFNRETGQYIGRTRAWIKQQVYEMMRGRCQHP
notes: ERH-2, C. elegans, residues 1-103; In the crystals it stood joined on one chain with PICS-1^180-200 (via (GSS)7) or TOST-1^34-54 (via (GSS)6); written apart for the rows of the two partners; also called ERH-2^A; ERH-2^B; source: E. coli BL21(DE3), purified as part of the fusion proteins m8 and m9
B2: ERH-2 (natural protein, C. elegans, UniProt Q20057 1-113, looked up)
chain: T6 sequence (looked up) with A67D
notes: ERH-2, C. elegans, amplified from a cDNA library; also called wild type ERH-2; source: E. coli BL21(DE3), purified (Ni-NTA, TEV, second Ni-NTA); not shown: His tag (from the Ni-NTA purification), N-terminal, cleaved
B3: PICS-1^RRM (residues 201-282) (domain or fragment, C. elegans, UniProt O76616 201-282, looked up)
chain: QENMLKISGYPGMLNTFGIAQLLTPYRVNGITITGAQSAVVALENKFQVYQAVQDFNGKKLDRNHKLQVSSLVVSSPAVPLE
notes: Homodimer in the crystal and by gel filtration; also called PICS-1(PID-3) RRM domain; PID-3; source: E. coli BL21(DE3), purified (Ni-NTA, TEV, second Ni-NTA, Superdex 75); not shown: His tag (from the Ni-NTA purification), N-terminal, cleaved
B4: PICS-1^RRM (I233M) (SeMet) (domain or fragment, C. elegans, UniProt O76616 201-282, looked up)
chain: B3 chain with I33M
modifications: seleno-methionine (SeMet) labeled
notes: also called SeMet PICS-1^RRM(I233M); source: E. coli BL21(DE3) in M9 medium with SeMet, purified with TOFU-6^RRM (L73M) (Ni-NTA, TEV, Superdex 75); not shown: His tag (from the Ni-NTA purification), N-terminal, cleaved
B5: SUMO-fused PID-1^50-70 (domain or fragment, C. elegans, UniProt Q19541 50-70, looked up)
chain: TNLHRKVTLSDRFELAALGYE
notes: PID-1, C. elegans, residues 50-70; the results say it was fused to the C-terminus of SUMO; also called PID-1 fragment; source: E. coli BL21(DE3), purified (Ni-NTA); not shown: SUMO, N-terminal, kept
B6: SUMO-fused PICS-1 ERH-2 binding motif (EBM, residues 180-200) (domain or fragment, C. elegans, UniProt O76616 180-200, looked up)
chain: EDIKDSVFKVLHAEEEPRGAD
notes: Cloned into pET28-SUMO; the Kds are for the SUMO fusion protein; also called PICS-1^EBM; PICS-1^180-200; source: E. coli BL21(DE3), purified (Ni-NTA); not shown: SUMO, N-terminal, kept

Series [1] concerns the molecule itself. In words: crystal structure; fusion protein ERH-2^1-103-(GSS)7-PICS-1^180-200, 2.40 Å; 15% 2-propanol, 0.1 M sodium citrate pH 5.0, 10% PEG 10000, 18 °C.
For a further series, the target named is T1, PICS-1^5-282. In words: SEC; ERH-2 and TOFU-6^RRM mixed with PICS-1 constructs, Superose 6 Increase 10/300 GL, 20 mM Tris hydrochloride pH 8.5, 200 mM NaCl; fractions on SDS-PAGE. The settings on record: both partners purified. (SEC sorts molecules by how far they enter the pores of the column.)
Another series has as its target T2, PICS-1^5-200. Described as above. The settings on record: both partners purified.
Series [2] deals with the molecule itself. In words: SEC; wild type and F217E of PICS-1^RRM on HiLoad 16/600 Superdex 75, 20 mM Tris hydrochloride pH 8.5, 200 mM NaCl.
The target in series [3] is T3, TOFU-6^RRM (residues 2-92). In words: ITC; MicroCal ITC200, 25 °C, 20 mM Tris pH 8.5, 200 mM NaCl or 20 mM MES pH 6.5, 200 mM NaCl; 1–2 mM in the syringe into 30–50 μM in the cell; one-site binding model. The settings on record: both partners purified. (Isothermal titration calorimetry measures the heat released or taken up as one component is titrated into another.)

The target in series [4] is T4, TOFU-6^RRM (L73M) (SeMet). In words: crystal structure; SeMet TOFU-6^RRM (L73M)/PICS-1^RRM (I233M) complex, 1.95 Å; 2% 1,4-dioxane, 0.1 M Tris hydrochloride pH 8.0, 15% PEG 3350, 0.01 M nickel chloride, 18 °C. To be noted: both partners purified.
Series [5] concerns the molecule itself. The description is as above.
The target in the series “ERH-2” is B2. In words: ITC; MicroCal ITC200, 25 °C, 20 mM Tris pH 8.5, 200 mM NaCl or 20 mM MES pH 6.5, 200 mM NaCl; 1–2 mM in the syringe into 30–50 μM in the cell; one-site binding model. To be noted: both partners purified.
Series [6] has as its target T5, ERH-2^1-103-(Gly-Ser-Ser)7-PICS-1^180-20 …. Described as above. The settings on record: both partners purified.
The next series concerns the target T6, ERH-2 D67A. The series is described as above. The settings on record: both partners purified.

Turning to B1, the binding result in [1] was “binds”.
Consider B2, for which the binding result with PICS-1^5-282 and with PICS-1^5-200 was “binds” throughout.
For the molecule B3, the binding result in series [2] is recorded as “binds”. This molecule returned a Kd in series [3] of 0.0062 µM.
As for B4, the binding result in [4] and in series [5] was “binds” throughout.
On to B5, for which the Kd in the series with ERH-2 was found to be 18 µM; in series [6], 12 µM.
Turning to B6, the Kd was 4.3 µM in the series with ERH-2 D67A and 8.5 µM in the series with ERH-2.
